Our source for the amyloid nucleation score values is the supplement of paper PMC12042874.

± gives the uncertainty stated by the source.

The nature of the data set: amyloid nucleation score (Sup35N fusion, yeast selection) (log enrichment); library NNK2; higher = more nucleation; inactive = no reads after selection. Summed up: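 Nucleation score is defined as the DiMSum log enrichment of output over input reads, with centring on the mode score of non-aggregating sequences. A minimum of 100 input reads was required for each sequence. Reads came from Illumina sequencing of plasmid inserts from psi-negative yeast expressing Sup35N fused to peptides of 20 random codons, induced with 100 μM copper sulfate for 24 hours and grown 7 days at 30°C on medium lacking adenine and uracil.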

SRVIVTDFVNSNATA: the amyloid nucleation score amounted to 0.218 ± 0.51. Take VIKCLVPSLIKSFRRHWFNT: the amyloid nucleation score was -0.708 ± 0.79.

Turning to TQSWVAISLVRHRSWGSWLG, the amyloid nucleation score was determined as 3.57 ± 0.07. IVCWTMVVDLIVDQMLTAYR yielded an amyloid nucleation score of 1.03 ± 0.28. Substance DVRHQWFEMVRVVIICKPVN registered an amyloid nucleation score of -0.149 ± 0.42. The substance YKILQFETSFRT showed an amyloid nucleation score of -0.977 ± 0.63. The figure for DAKPVCIDGLFI is -0.839 ± 0.56; for LMALTPIVVVYIMGSMDLST it is -0.436 ± 1.1. With VYTTLPYSFGGYNCYMSSRL, the amyloid nucleation score entry was “inactive”.

As to NKLTVPYTVDVNDTILDRGK, the amyloid nucleation score was -0.015 ± 0.46.

On to MFSNFLIRKEGRKKVAMVKK, for which the amyloid nucleation score was -1.04 ± 0.33. The substance IVQSSTAKHEDQVFGKKV came in with an amyloid nucleation score of 1.24 ± 0.61. The figure for RGMTRVVFTVMLLRLWYSQS is 0.659 ± 0.21; for HWYVVDLVRVNYRALNSKWW it is 0.194 ± 0.56. Then LFVCMTLGYSLGKSHFDNGS, with 4.1 ± 0.044; and IFCYPQCVGPRSLCVGGNME, with -0.72 ± 0.39. The figure for VGWHPPVLTEYTMDQTAYTT is 1.39 ± 0.29.

For the substance VLELLGPIMSRKIFLKVGFC, the amyloid nucleation score entry is “inactive”. LSAKWCTECNLAASRRLNIN displayed an amyloid nucleation score of 0.034 ± 0.32. In turn, FRFSNR gave an amyloid nucleation score of 0.389 ± 0.56. Regarding SDTSVRGLLLEVCRWSGWVA, the amyloid nucleation score was 1.33 ± 0.35. The figure for NVVMHRENVYFCLVNLHWTD is 7.837 ± 0.04; for PRKLLSLKPNSTAAGKCATL it is 2.89 ± 0.079; for YSNSPCVIYNMKGRGSLLSH it is -1.6 ± 0.64. For TLMCFYYFEQ, the amyloid nucleation score worked out at 9.395 ± 0.053. The figure for WCAPWPWVKCLFTSPVFSVV is 0.712 ± 0.4; for GVGGRVWTC it is -0.998 ± 0.76; for LKSKVTLSYYSIVPAISVYE it is “inactive”. Then GNIMSFSFMPDLGISFCPGC, with 6.515 ± 0.049; and ILTIALVRFSLSRWRLPWPY, with 1.36 ± 0.29.

Take CKRFFYFLGIPATPDRSAFS: the amyloid nucleation score is -0.588 ± 0.76.

Regarding SSCRGIEWRFQTGNITQWLG, the amyloid nucleation score was -0.165 ± 0.23. The figure for FLKIYPIPNCYERCCVHLPP is 0.06 ± 0.61; for FGLTRPEKWEHLHVYCNYMS it is 0.615 ± 0.38; for TGQKFT it is -0.615 ± 0.41. Turning to SYVNKWAECLSCTTEYTMSK, the amyloid nucleation score entry is “inactive”. The figure for NFYILLATGSFYAVLGCRQY is 2.36 ± 0.12; for DTLFNCFSCIVKLMSYIKSL it is “inactive”. Then FFIGIQQWSYHWPVVGVYNK, with “inactive”.

The substance IANKCVS returned an amyloid nucleation score of -1.12 ± 0.55. Then IALQDSDFSLLWFMHVCWDE, with -0.463 ± 0.74; and DHRLYQSFKALRVPSVVLRG, with -0.766 ± 0.79. The figure for AINCKTGRKLNWIVFGRFTV is -0.315 ± 0.25; for FLIRDLAMHSSCSGSAIMIT it is -0.713 ± 0.37. Then VTFFTAFLTFVYCCMMLMYM, with 7.32 ± 0.078; and DFVRY, with -0.484 ± 0.63; and HAACCASNLLWGRFFWSCAD, with 2.74 ± 0.084.

Turning to YAYAEWERNRWRRDDNLNVE, the amyloid nucleation score was -0.251 ± 0.38.

With VLNISMLLWIYNTYGNDGKV, the amyloid nucleation score is 8.029 ± 0.08.

The substance RYHWEVLK came in with an amyloid nucleation score of 0.082 ± 1. The figure for RVEEWASFTTVIIMRMLNPG is 0.94 ± 0.6; for MHEAH it is 0.439 ± 0.46. DAVRQGTL showed an amyloid nucleation score of 0.102 ± 1.1. The figure for TLRTFRRAQGTRYVYLK is 0.121 ± 0.23; for FYPAEFYGKGLVDRTLFFIC it is 0.12 ± 0.18.

On to PQAVLKGTQGHNLTKNLTWA, for which the amyloid nucleation score is -0.774 ± 0.49. Then NGVKEYLGNTSWKCTNRA, with -0.137 ± 0.5. Then KNNRVAFTLYFSQTARDWMH, with 5.156 ± 0.046.

Substance ADCLKSCLAMSGF showed an amyloid nucleation score of -0.14 ± 0.8. The figure for RCNQLIWTASDNWYYMWTTV is 1.8 ± 0.1; for ISFYQWRPWNFLRYRRGNAH it is 0.237 ± 0.31. Then YASYICIQHYCFFLAYYNML, with “inactive”. TSYIVDTSSLFITRASTG: the amyloid nucleation score was 0.336 ± 0.44.

Take ATYINLVINSKSARLFLICG: the amyloid nucleation score stood at 4.732 ± 0.036. The figure for RTIVCF is -0.699 ± 1; for SYEAGMHVNKGYLQVMCVDG it is -0.086 ± 0.23. The substance TVALNSWARHGEML displayed an amyloid nucleation score of -0.375 ± 1.1. Then IFGFGL, with 2.85 ± 0.2; and FSMRSKQGRTFTRLQDGSGL, with 4 ± 0.046. LLQKFVMGGEVRRESGGVRC: the amyloid nucleation score was 0.726 ± 0.25. HRVFNEGASMGTCCSILLEM yielded an amyloid nucleation score of 6.047 ± 0.042. Consider GDSFLWTHS, for which the amyloid nucleation score is -0.994 ± 0.62. Then NNLATPRQRVWLQVTLPARP, with 0.692 ± 0.21. The substance CFPPFLC returned an amyloid nucleation score of 0.13 ± 1.1. Then RVGRSSKLWGFREYTSRKFG, with 0.28 ± 0.77; and SVESIYLVVDVMMLGELCCA, with 4.849 ± 0.034; and LVSYSDVGWPLYWFCSVRVP, with 1.24 ± 0.2. The figure for YCWWRSWEPKILRCSLVLVK is 0.281 ± 0.44. The substance ENKGGCFARVDVGCVGSGMR yielded an amyloid nucleation score of 0.014 ± 0.42.

As for MVPKNFYFRRWLSWLRVRLL, the amyloid nucleation score came out at 0.144 ± 0.52. Then VSVWYGGLVRVRSTWCKIKF, with 1.13 ± 0.13. The entry for YNVTYLLRCFSILVSRVLKV is “inactive”; for EPHSAI it is -0.1 ± 1.

As to RRGTQVFCCDYWSARGSWT, the amyloid nucleation score worked out at 8.749 ± 0.062. Regarding PTRLTVKVMCLKPEPLVWKL, the amyloid nucleation score came out at 6.476 ± 0.042. Then NYVVE, with 4.73 ± 0.069; and SGIALFKPSCSVGVAQFDYE, with -0.024 ± 0.45; and HCTWSQPPSS, with -0.001 ± 0.5. Then MIMLDAEGLYIIPRGVSKFL, with 1.87 ± 0.11. Consider HHSELFIIITYFG, for which the amyloid nucleation score worked out at 0.206 ± 0.5. The figure for FENDFMRVSCDGSRGILCVL is 2.48 ± 0.11. The figure for PDLMLPDRLDIERCLQVWD is 0.049 ± 0.18; for RIMPTLLKIPYLWYQSLSCD it is -0.081 ± 0.22; for HTTDFIVLMVRSDASIRLWS it is 4.1 ± 0.077. Then RVFRCYRIIYMVMI, with 0.204 ± 0.19; and LSEFDHYDWVSSSTLFGFCC, with -1.13 ± 1.1. In the case of YNSNFPTLYWG, the amyloid nucleation score entry was “inactive”. The figure for DYKDYNLCGITHMESF is -0.442 ± 1. Turning to FINNNNGAPSRVHPTGALTR, the amyloid nucleation score is -0.357 ± 0.53. Then LNHGNMEYWLSMDVINLSQI, with 0.238 ± 0.3; and FAPCNCSCVK, with 0.827 ± 0.58; and GVVFFFGKDNGRDIMSGTRY, with “inactive”.

For the substance CFEVFRFRRNRSLISPYQRM, the amyloid nucleation score amounted to 0.612 ± 0.62. Then LFVLLSDKTHSYSYAECQPM, with 3.65 ± 0.052; and HNLCGYLLVSVAWVLWWIRR, with 2.61 ± 0.11.

In turn, ERNLLRNSDDMD gave an amyloid nucleation score of -0.642 ± 1.1. The figure for VSAGVTREGLEVGTVFGP is 0.379 ± 0.44. As for NPLHP, the amyloid nucleation score is 0.116 ± 0.24. SHGELEVAMPDTGNI returned an amyloid nucleation score of -0.378 ± 0.32. Then ILNYSWALRVIDFTHRKVFS, with -0.376 ± 0.2; and YDSTVFTITWAKWDVYSLST, with 2.36 ± 0.096. The figure for LLFVCVFYVYSSPDNHILAM is -0.633 ± 1.1; for LNILHNFRKRTLFAAMFVLR it is “inactive”.

In turn, FCEICPKYYALFEEGQLSGR came in with an amyloid nucleation score of 3.62 ± 0.068. Then FIRHSTSALGP, with 0.889 ± 0.43; and TGFNRCGSRWWLLVSNVKLV, with -0.388 ± 0.54; and MIKHGYQWPCSLCT, with 0.219 ± 0.46.

The substance SWFWVPGNQLLMTIEGFQWS displayed an amyloid nucleation score of -0.281 ± 0.35. Then GAEFTFGLFTYEFGIGQG, with 0.285 ± 0.57; and LKSDRSLMLIEPALDLIWYF, with -0.27 ± 1.1. Then TRDSLGRKGYRSAVLTPSMP, with 1.29 ± 0.14. Then GELWCDLRILFVGVSLIVL, with “inactive”; and MTFENFSSSHSWTDLLFLFI, with 3.43 ± 0.078; and NLCSGTIVVFIGCMKAAWFV, with 4.39 ± 0.045. VFVIWCFVIICVSLLSVVDR had an amyloid nucleation score of -0.795 ± 0.49. Then YYGSGNPSQGVVSEWLVRDA, with 0.571 ± 0.36; and LDCLRFTDFILIISKFVPVL, with 0.026 ± 1.1; and NRKTSGLYVFRWRKRPR, with 0.264 ± 0.4. In turn, RVGQSIYMPPLRNGRAGVKW returned an amyloid nucleation score of 1.21 ± 0.27.

On to WMCRSTAMIHSRSDCV, for which the amyloid nucleation score was 6.328 ± 0.052. On to TVCWEWSSLWDTPSLKSAD, for which the amyloid nucleation score stood at 0.536 ± 0.37. Turning to MPQWKL, the amyloid nucleation score is -0.205 ± 0.74. The figure for FAYFDDLGVLMLYQLNRMSL is -0.097 ± 1.1; for WGCCGDLVYAIS it is 0.194 ± 0.62; for CNPIGIMHN it is “inactive”.

SGPWTSWLVSLG: the amyloid nucleation score was -0.003 ± 1.1.

For NMFVSSRSM, the amyloid nucleation score came out at 0.585 ± 0.8.

For IQLDTESSLVKRRAWYG, the amyloid nucleation score turned out to be 0.34 ± 0.64.
